Consider eight substances from US20170336407A1.

What all share (assay): cell-based or functional assay
Experiment [1] has as its target T1, Botrytis cinerea fungal pheromone GPCR (Botrytis cinerea).
T1 sequence: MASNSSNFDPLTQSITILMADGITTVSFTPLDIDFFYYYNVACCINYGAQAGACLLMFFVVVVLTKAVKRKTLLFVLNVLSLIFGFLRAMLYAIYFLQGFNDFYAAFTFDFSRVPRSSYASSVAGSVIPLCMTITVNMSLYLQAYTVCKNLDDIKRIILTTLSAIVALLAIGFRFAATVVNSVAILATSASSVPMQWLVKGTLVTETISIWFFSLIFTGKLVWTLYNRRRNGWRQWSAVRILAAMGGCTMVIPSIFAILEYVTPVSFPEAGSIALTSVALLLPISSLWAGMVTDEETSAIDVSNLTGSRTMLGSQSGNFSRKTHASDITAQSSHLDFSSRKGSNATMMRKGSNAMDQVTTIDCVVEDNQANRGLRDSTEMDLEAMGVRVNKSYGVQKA

In experiment [2] the target is Fusarium graminearum fungal pheromone GPCR (Fusarium graminearum).
Experiment [3] has as its target Paracoccidioides brasiliensis fungal pheromone GPCR (Paracoccidioides brasiliensis).
The target in experiment [4] is T2, Lodderomyces elongisporous fungal pheromone GPCR (Lodderomyces elongisporous).
T2 sequence: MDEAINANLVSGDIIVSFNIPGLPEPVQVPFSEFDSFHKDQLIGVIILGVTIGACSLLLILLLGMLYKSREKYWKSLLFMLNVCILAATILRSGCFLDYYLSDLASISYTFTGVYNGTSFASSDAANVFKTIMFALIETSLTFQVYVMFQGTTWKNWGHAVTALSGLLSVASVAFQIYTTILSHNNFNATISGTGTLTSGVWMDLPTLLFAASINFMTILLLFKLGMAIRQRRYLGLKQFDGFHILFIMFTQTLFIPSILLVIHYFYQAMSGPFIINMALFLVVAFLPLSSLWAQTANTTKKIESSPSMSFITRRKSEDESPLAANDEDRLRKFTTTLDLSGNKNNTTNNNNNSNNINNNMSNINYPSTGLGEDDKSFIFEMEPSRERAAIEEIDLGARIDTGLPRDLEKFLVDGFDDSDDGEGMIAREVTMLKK

Experiment [5] has as its target T3, Saccharomyces cerevisiae Ste2 pheromone receptor, wild type (Saccharomyces cerevisiae) (UniProt D6VTK4).
T3 sequence: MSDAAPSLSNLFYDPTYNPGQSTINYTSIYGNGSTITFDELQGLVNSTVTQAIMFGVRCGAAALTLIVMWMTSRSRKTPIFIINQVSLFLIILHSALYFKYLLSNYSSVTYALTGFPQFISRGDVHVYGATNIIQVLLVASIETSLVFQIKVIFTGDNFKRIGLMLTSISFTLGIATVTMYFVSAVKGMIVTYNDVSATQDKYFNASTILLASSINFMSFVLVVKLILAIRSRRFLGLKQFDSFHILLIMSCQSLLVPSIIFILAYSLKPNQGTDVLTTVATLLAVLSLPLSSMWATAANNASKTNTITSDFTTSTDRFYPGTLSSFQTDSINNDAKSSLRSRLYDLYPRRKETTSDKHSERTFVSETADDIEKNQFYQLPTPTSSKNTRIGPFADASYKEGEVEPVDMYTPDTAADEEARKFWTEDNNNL

In experiment [6] the target is T4, Candida albicans fungal pheromone GPCR (Candida albicans).
T4 sequence: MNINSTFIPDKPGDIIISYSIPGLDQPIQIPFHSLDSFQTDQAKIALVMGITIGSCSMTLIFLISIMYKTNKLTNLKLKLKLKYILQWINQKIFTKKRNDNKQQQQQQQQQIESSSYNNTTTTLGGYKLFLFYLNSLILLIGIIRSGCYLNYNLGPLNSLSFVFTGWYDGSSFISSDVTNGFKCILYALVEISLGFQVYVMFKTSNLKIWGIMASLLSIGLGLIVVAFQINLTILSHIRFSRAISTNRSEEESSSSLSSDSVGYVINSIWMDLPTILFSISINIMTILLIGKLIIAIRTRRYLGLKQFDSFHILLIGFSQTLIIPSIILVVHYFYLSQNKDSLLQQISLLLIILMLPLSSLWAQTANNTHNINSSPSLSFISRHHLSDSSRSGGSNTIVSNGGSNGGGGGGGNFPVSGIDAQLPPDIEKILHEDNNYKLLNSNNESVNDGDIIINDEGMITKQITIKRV

The target of experiment [7] is T5, Candida glabrata fungal pheromone GPCR (Candida glabrata).
T5 sequence: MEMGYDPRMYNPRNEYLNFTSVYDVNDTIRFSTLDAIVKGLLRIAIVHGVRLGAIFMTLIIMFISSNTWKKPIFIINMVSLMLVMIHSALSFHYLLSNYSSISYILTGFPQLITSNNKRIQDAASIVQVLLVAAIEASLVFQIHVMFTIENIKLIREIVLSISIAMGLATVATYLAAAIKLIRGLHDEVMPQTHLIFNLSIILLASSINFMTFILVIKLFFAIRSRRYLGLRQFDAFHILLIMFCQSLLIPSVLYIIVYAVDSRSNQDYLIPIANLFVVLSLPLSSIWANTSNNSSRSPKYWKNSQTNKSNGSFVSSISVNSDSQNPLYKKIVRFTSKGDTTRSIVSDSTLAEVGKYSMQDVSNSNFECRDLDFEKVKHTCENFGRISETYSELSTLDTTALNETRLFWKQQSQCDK

In experiment [8] the target is Magnaporthe oryzea fungal pheromone GPCR (Magnaporthe oryzea).

For “Botrytis cinerea mating peptide pheromone …”, the EC50 (fluorescent reporter) in experiment [1] is less than 1 nM. On to “Fusarium graminearum mating peptide pheromone […]”, for which the EC50 (fluorescent reporter) in experiment [2] was 230 nM.

In experiment [3], “Paracoccidioides brasiliensis mating peptide […]” came in with an EC50 (biosensor strain, fluorescence) of 34 nM and an EC50 (fluorescent reporter) of 9 nM. With “Lodderomyces elongisporous mating peptide pheromone …”, the EC50 (biosensor strain, fluorescence) in experiment [4] is 51 nM. “S. cerevisiae α-Factor, wild type, … (peptide)”: the EC50 (biosensor strain, fluorescence) in experiment [5] is 190 nM. As for “Candida albicans mating peptide pheromone …”, in experiment [6], the EC50 (biosensor strain, fluorescence) came to 4 nM and the EC50 (fluorescent reporter) stood at 51 nM. “Candida glabrata mating peptide pheromone …”: the EC50 (biosensor strain, fluorescence) in experiment [7] was determined as 3.6 µM.

In turn, “Magnaporthe oryzea mating peptide pheromone […]” had an EC50 (fluorescent reporter) in experiment [8] of 5 µM.
